Here are results for 2 molecules from publication PMC9200344, “The Caenorhabditis elegans TDRD5/7-like protein, LOTR-1, interacts with the helicase ZNFX-1 to balance epigenetic signals in the germline” (PLoS Genetics, 2022).

Assay [1] addresses 3xFLAG::GFP::LOTR-1 with Tudor deletion (sam102) (C. elegans (endogenous in embryos and young adults)). As to the kind of experiment: affinity purification with mass spectrometry; anti-FLAG (M2) IP of 3xFLAG::GFP::LOTR-1 (wild type, LOTUS or Tudor deletion) on Protein G magnetic beads from embryo and young adult extracts, 4°C, washes with 300 mM NaCl; quantitative MS against the lotr-1 deletion expressing 3xFLAG::GFP alone.

For assay [2], the target named is 3xFLAG::GFP::LOTR-1 with e+mLOTUS deletion (sam113) (C. elegans (endogenous in embryos and young adults)). Described as above.
The target in assay [3] is T1, 3xFLAG::GFP::ZNFX-1 (C. elegans (endogenous in embryos and …, UniProt E9P860 1-2443)).
T1 construct: ZNFX-1, Z-granule helicase, C. elegans; also called FLAG-tagged ZNFX-1; source: tagged ZNFX-1 expressed in worms, C. elegans embryo and young adult lysate
T1 sequence (E9P860 whole entry): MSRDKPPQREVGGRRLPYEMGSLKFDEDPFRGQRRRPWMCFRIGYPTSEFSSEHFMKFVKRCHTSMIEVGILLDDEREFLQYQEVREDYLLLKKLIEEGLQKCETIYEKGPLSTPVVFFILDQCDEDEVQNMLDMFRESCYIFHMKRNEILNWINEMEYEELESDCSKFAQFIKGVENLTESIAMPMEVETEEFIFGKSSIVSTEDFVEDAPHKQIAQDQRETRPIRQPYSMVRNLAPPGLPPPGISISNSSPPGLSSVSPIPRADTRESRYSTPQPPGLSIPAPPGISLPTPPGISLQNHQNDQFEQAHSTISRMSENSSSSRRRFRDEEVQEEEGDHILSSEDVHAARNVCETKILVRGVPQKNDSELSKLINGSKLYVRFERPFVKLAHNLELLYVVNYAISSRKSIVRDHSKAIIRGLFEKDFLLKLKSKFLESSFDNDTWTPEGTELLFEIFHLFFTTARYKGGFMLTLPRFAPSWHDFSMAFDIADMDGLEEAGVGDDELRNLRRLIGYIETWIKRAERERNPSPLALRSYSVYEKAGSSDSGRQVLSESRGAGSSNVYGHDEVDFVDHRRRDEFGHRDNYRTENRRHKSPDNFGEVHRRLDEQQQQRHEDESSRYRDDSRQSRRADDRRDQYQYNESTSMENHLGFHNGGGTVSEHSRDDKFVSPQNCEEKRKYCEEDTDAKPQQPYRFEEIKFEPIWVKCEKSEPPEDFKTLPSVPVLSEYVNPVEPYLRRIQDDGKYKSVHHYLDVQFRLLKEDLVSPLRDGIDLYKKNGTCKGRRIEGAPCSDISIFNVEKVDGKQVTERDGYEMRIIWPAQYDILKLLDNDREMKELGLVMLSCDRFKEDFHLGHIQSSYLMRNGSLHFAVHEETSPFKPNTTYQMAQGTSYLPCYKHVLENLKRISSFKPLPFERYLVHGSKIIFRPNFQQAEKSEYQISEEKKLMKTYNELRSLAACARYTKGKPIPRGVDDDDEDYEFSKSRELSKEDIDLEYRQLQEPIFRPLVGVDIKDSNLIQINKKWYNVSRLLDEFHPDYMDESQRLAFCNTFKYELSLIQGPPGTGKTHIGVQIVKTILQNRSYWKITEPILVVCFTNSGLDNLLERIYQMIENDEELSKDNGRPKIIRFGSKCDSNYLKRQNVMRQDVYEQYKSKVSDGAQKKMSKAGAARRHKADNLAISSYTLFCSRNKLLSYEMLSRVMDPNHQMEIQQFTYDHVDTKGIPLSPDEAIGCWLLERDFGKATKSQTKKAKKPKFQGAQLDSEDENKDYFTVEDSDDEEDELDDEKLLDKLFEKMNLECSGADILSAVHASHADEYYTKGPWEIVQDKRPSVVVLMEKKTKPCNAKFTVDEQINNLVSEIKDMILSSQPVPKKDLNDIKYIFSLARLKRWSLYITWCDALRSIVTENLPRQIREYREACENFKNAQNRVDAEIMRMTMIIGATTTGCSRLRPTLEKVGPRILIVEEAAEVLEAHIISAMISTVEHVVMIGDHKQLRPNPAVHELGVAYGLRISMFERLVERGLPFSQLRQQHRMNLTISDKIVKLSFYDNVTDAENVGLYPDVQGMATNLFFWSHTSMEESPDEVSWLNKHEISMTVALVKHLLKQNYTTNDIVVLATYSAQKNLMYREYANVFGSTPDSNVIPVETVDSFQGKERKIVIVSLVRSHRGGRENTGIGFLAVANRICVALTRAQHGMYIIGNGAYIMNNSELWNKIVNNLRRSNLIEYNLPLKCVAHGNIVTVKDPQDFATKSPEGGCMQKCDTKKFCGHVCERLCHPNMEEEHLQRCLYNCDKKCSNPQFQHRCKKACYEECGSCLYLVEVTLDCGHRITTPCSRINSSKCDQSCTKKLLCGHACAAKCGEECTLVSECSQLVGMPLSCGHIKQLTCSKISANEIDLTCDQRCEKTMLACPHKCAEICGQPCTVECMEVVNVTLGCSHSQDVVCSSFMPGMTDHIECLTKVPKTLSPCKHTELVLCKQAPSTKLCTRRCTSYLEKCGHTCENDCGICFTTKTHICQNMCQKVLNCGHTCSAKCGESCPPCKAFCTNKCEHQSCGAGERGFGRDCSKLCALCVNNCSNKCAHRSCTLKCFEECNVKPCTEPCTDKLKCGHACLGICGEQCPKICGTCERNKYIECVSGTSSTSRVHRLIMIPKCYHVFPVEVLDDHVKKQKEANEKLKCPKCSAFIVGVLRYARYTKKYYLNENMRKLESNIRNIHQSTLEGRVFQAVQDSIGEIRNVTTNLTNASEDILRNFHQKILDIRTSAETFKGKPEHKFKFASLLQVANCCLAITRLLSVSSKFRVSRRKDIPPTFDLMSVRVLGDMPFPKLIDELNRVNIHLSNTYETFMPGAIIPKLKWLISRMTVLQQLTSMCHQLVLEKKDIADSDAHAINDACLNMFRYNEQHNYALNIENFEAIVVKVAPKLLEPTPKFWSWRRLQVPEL
As to the kind of experiment: affinity purification with mass spectrometry; anti-FLAG IP of 3xFLAG::GFP::ZNFX-1 from embryos and adults of lotr-1(xf58) mutants (in-frame deletion that removes most of the LOTUS domain); quantitative MS compared with the wild-type background. Particulars: partners not purified.

In turn, MEG-3 (natural protein) returned a percent reduction of association against wild-type LOTR-1 (embryos) in assay [1] of 90%. Moreover, the fold change of association against wild-type LOTR-1 (embryos) in assay [2] came to 2 fold.

B1: MIP-2 (natural protein, C. elegans (endogenous in young adults), UniProt P90898 1-666, looked up)
chain: MSEEEGKEKMNKMRKRIERDAYSVLLSFKDGASPKQVEQRMDDTLGYDYCSKYHLAGVYDMAQILIEHPDVRQTYEGKFKIIANEDNQDLVDLISKQSDGPRNKGSSKRGRRSSSSAGYHQRSMFGGELSRSPRYSSCRPRSYASFGKAASKKLFQNFGQPSRPFSVLSSSKASTSSAIQSFGTGNHDSTFGKSSGSNANPTNPPVAPSIQRPLMRPSTASSIPIFILRSGSRSPVKKHVQIKTSSSSSHMPTITEFMNNTKRMMVKELPASVHLSEMTELYEREFGAPVDPLLLFSKSWMLMAKTTFKEFLQVIDGEVSLREKWLADQGTTTKSVLELPSRKVEATTVAQLPISQGFRYQDPNSKPKADLASISKSLDGLTLNARKSKKEASKSDMMPFIPKNHREIVTKRFGNAPSSVKADSIVERVQSTSCIFGRQSVPSVLSISSSSTVVPEKLNEEGLKYDSKELLQLKALKKTDVMLVNVYASLKAFPQMIDARAKALMQQNLEVQRNMASRASLNVVAQVQRPSSSINLQRVRVNPNQCVKKVVPVRTLGQALAEVRRQREQVEQEAFNEQPEPSPSPRLGMGSSSHAASNVSDDGWGAQVVQKVEKSPPKPFTVLLPPMSKGAGVKIRPRSRVVLCHSSASSFPPSLNSDFSPNISQA
notes: MIP-2, LOTUS-domain protein, C. elegans; source: endogenous, C. elegans young adult lysate
With B1, the “fold change of association in lotr-1(xf58) mutant adults against wild type” value in assay [3] was 2 fold.
